Experimental findings from article PMC7985572, “Backbone chemical shift spectral assignments of SARS coronavirus-2 non-structural protein nsp9” (Biomolecular Nmr Assignments, 2021) are described below.

The data set deals with the molecule itself. Put plainly: SEC. (In general: In gel filtration, larger molecules generally elute earlier.)

B1: SARS-CoV-2 non-structural protein 9 (nsp9) (natural protein)
chain: GAMGNNELSPVALRQMSCAAGTTQTACTDDNALAYYNTTKGGRFVLALLSDLQDLKWARFPKSDGTGTIYTELEPPCRFVTDTPKGPKVKYLYFIKGLNNLNRGMVLGSLAATVRLQ
notes: also called non-structural protein nsp9; sample A; not shown: His6, N-terminal, cleaved; GST, N-terminal, cleaved
For orientation: stoichiometry N means a count of units in the complex or per binding partner. For B1, the “stoichiometry N” value was found to be 2.
